Laboratory results reported in patent US20250195617A1, “Liquid Pharmaceutical Formulations of CNP Compounds” (Ascendis Pharma Growth Disorders A/S, priority 2022, published 2025).
Bridges are numbered along the chain shown (N, C = ends). Where no end group is shown, it is not given here.

assay: Storage stability of CNP peptide liquid formulations (F33-45), content and purity by RP-HPLC/MS; assay type: physicochemical; details: acetate buffer, 5° C., 6 months, LC-MS
Procedure: All excipient stock solutions, except for phenol and m-cresol, were prepared by combining the required excipients in a volumetric flask and filling it up to 90% of the desired volume with water. The pH of the stock solutions was adjusted using 1 M NaOH solution as required and the volume adjusted to the desired volume with water. The stock solutions were filtered through a 0.2 μm PVDF-filter. Stock solutions of phenol (1.75%) and m-cresol (1.05%) were prepared by adding the preservative to the respective excipient stock solution after filtration. Next, the required amount of CNP was dissolved in the required amount of the desired excipient stock solution and the pH was checked and adjusted if needed with 1 M NaOH. The formulations were filtered through a 0.22 μm PVDF filter and the respective preservative stock solution was added. The formulations were aliquoted ready for incubation.
RP-HPLC/MS to determine the content and purity of CNP (F33-45): Mobile phase A was composed of 0.05% aqueous TFA (v/v) and mobile phase B was composed of 0.04% TFA (v/v) in acetonitrile. A Waters Acquity CSH C18, 130 Å, 1.7 μm, 2.1×100 mm column was used. Flow rate was set to 0.3 ml/min, detection was at a wavelength of 215 nm, the column running temperature was 65° C. and the sample injection load was approx. 3 μg CNP-38 eq. (20 μL of a 0.135 mg/ml sample). Samples were diluted to 0.135 mg/mL with dilution buffer (10 mM succinic acid, 84 g/l trehalose dihydrate, adjusted to pH 5 with 1M Tris). For LCMS the HPLC system was coupled to an LTQ Orbitrap Discovery XL instrument and ESI-MS was performed in the positive mode. The change in content of the TIM, T3M and T6M was determined by peak area comparison to the TO sample. For determination of the purity, all peaks higher than the LOQ (0.10%) and not present in the blank were integrated.
The influence of the buffering agent, pH, tonicity agent, detergent, and preservative on the stability of CNP-38 was evaluated. For this purpose, nine formulations of CNP-38 were prepared at a concentration of 2 mg/mL and incubated for 6 months (Table 16). One formulation each at pH 4.5 (F33), pH 5.0 (F34) and pH 4.0 (F35) in acetate buffer were prepared. L-methionine was used to prevent the oxidation of the methionine residue in the peptide, trehalose dihydrate was used as a tonicity or isotonicity agent, Poloxamer 188 as a detergent and m-cresol as a preservative. Another formulation at pH 4.5 containing the same excipients was prepared, in which trehalose was switched to mannitol (F37). […] The formulations were incubated at 5° C. To evaluate whether acetate adducts are formed in acetate buffer, the same formulation as in F33 was incubated at accelerated conditions at 25° C. (F33, 25° C.). […]

Formation of acetylated species, No acetylated peptides:
DLRVDTKSRAAWARLLQEHPNARKYKGANKKGLSKGCFGLKLDRIGSMSGLGC (disulfide 37-53; listed as Homo sapiens) [CNP-53]
GANKKGLSKGCFGLKLDRIGSMSGLGC (disulfide 11-27) [CNP-27]
GLSKGCFGLKLDRIGSMSGLGC [CNP-22]
PGQEHPNARKYKGANKKGLSKGCFGLKLDRIGSMSGLGC (disulfide 23-39) [PG-CNP-37]
